Blank lines part the entries; values can stand above or below the molecule they belong to.
What was measured:
[1] = biological target: FUS(Y-S) with 27 Tyr of the PLCD substituted to Ser (UniProt P35637); assay: DLS; settings: 10 µM FUS (PLD, Y-S), read off a plot
[2] = biological target: FUS 6F-G variant (Phe residues of the RBD substituted to Gly) (UniProt P35637); assay: DLS; settings: 10 µM FUS (RBD, F/Y-G/S), read off a plot
[3] = biological target: FUS 6Y-S variant (Tyr residues of the RBD substituted to Ser) (UniProt P35637); assay: DLS; settings: 10 µM FUS (RBD, F/Y-G/S), read off a plot
[4] = biological target: FUS(Y-S) with 18 Tyr of the PLCD substituted to Ser (UniProt P35637); assay: DLS; settings: 10 µM FUS (PLD, Y-S), read off a plot
[5] = biological target: FUS (10D/4E-G) variant (10 Asp and 4 Glu of the RBD substituted to Gly) (UniProt P35637); assay: DLS; settings: 250 nM FUS (RBD, D/E-G), read off a plot
[6] = biological target: FUS(R-G) with 24 Arg of the RBD substituted to Gly (UniProt P35637); assay: DLS; settings: 10 µM FUS (RBD, R-G), read off a plot
[7] = biological target: FUS(Y-S) with 10 Tyr of the PLCD substituted to Ser (UniProt P35637); assay: DLS; settings: 10 µM FUS (PLD, Y-S), read off a plot
[8] = biological target: FUS(R-K) with 24 Arg of the RBD substituted to Lys (UniProt P35637); assay: DLS; settings: read off a plot
[9] = biological target: T1, SNAP-tagged FUS (Fused in Sarcoma), P35637; assay: nanoparticle tracking analysis (NTA); sub-saturated solutions of one protein in 100 mM KCl and 100 mM KGlu, 25 °C, recorded 6 min after preparation; abundance of mesoscale clusters; settings: remark: other sources report otherwise
T1 chain: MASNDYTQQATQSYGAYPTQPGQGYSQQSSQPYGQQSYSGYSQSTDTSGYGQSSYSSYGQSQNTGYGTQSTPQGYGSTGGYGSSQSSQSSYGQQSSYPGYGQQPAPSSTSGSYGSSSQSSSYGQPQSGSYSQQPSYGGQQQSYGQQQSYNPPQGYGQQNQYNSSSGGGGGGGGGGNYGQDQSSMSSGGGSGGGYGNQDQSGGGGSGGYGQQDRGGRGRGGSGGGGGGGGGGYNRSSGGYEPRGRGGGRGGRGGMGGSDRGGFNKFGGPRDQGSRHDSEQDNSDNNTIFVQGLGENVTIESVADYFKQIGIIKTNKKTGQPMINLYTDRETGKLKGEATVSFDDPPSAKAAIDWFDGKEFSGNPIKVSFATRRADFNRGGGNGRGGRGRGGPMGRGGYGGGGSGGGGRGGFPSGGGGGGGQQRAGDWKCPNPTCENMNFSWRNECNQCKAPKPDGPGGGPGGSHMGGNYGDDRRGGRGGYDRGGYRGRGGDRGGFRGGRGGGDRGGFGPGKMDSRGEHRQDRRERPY

- response ([1]; KCl buffer): 0.74 Mcps
- response ([1]; KGlu buffer): 0.86 Mcps
Molecule: wild-type FUS 27Y-S

- response ([3]; KCl buffer): 0.49 Mcps
- response ([3]; KGlu buffer): 1.4 Mcps
Molecule: wild-type FUS 6Y-S

- response ([5]; KCl buffer): 3.2 Mcps
- response ([5]; KGlu buffer): 3.8 Mcps
Molecule: wild-type FUS 10D/4E-G

- relative abundance of mesoscale clusters (100 mM KCl) [9]: 0.2 to 0.4%
B1: SNAP-tagged FUS (Fused in Sarcoma), P35637 1-526 (natural protein)
chain: MASNDYTQQATQSYGAYPTQPGQGYSQQSSQPYGQQSYSGYSQSTDTSGYGQSSYSSYGQSQNTGYGTQSTPQGYGSTGGYGSSQSSQSSYGQQSSYPGYGQQPAPSSTSGSYGSSSQSSSYGQPQSGSYSQQPSYGGQQQSYGQQQSYNPPQGYGQQNQYNSSSGGGGGGGGGGNYGQDQSSMSSGGGSGGGYGNQDQSGGGGSGGYGQQDRGGRGRGGSGGGGGGGGGGYNRSSGGYEPRGRGGGRGGRGGMGGSDRGGFNKFGGPRDQGSRHDSEQDNSDNNTIFVQGLGENVTIESVADYFKQIGIIKTNKKTGQPMINLYTDRETGKLKGEATVSFDDPPSAKAAIDWFDGKEFSGNPIKVSFATRRADFNRGGGNGRGGRGRGGPMGRGGYGGGGSGGGGRGGFPSGGGGGGGQQRAGDWKCPNPTCENMNFSWRNECNQCKAPKPDGPGGGPGGSHMGGNYGDDRRGGRGGYDRGGYRGRGGDRGGFRGGRGGGDRGGFGPGKMDSRGEHRQDRRERPY
modifications: here or on the partner: AF488 or AF647 label on the copies used in smFRET and FCS (FUS-SNAP-AF488, FUS-SNAP-AF647); unlabelled in DLS and NTA; AF488 or AF647 label on the copies used in smFRET and FCS (FUS-SNAP-AF488, FUS-SNAP-AF647); unlabelled in DLS and NTA

Continued, molecule first:

Molecule: wild-type FUS 6F-G
- response ([2]; KCl buffer): 1.2 Mcps
- response ([2]; KGlu buffer): 1.7 Mcps

Molecule: wild-type FUS 18Y-S
- response ([4]; KCl buffer): 0.79 Mcps
- response ([4]; KGlu buffer): 1.3 Mcps

Molecule: wild-type FUS 24R-G
- response ([6]; KCl buffer): 1.2 Mcps
- response ([6]; KGlu buffer): 1.8 Mcps

Molecule: wild-type FUS 10Y-S
- response ([7]; KCl buffer): 0.81 Mcps
- response ([7]; KGlu buffer): 1.9 Mcps

Molecule: wild-type FUS 24R-K
- response ([8]; 1 µM FUS (24R-K), KCl buffer): 0.13 Mcps
- response ([8]; 1 µM FUS (24R-K), KGlu buffer): 1.9 Mcps
- response ([8]; 2 µM FUS (24R-K), KCl buffer): 0.32 Mcps
- response ([8]; 2 µM FUS (24R-K), KGlu buffer): 2.4 Mcps
- response ([8]; 3 µM FUS (24R-K), KCl buffer): 1.1 Mcps
- response ([8]; 3 µM FUS (24R-K), KGlu buffer): 3.8 Mcps
- response ([8]; 4 µM FUS (24R-K), KCl buffer): 1.4 Mcps
- response ([8]; 4 µM FUS (24R-K), KGlu buffer): 3.9 Mcps
